Laboratory results as given in patent US20220380459A1 (DRAGONFLY THERAPEUTICS, published 2022).
Where two headings read alike, the source gives them in different places. One block for each binder: values may come before it.

Key:
[1] = target: T1, C domain of human CD33 (human, UniProt P20138 140-259, limits assumed); assay: SPR, Fab captured, 37C
T1 construct: recombinant C domain
Experimental: (§1) Kinetics and affinity of a series of Fab fragments of anti-CD33 antibodies with different CD33 variants (human CD33 ECD, cyno CD33 ECD, V-domain of human CD33, C-domain or human CD33 and selected CD33 SNPs) were assessed by surface plasmon resonance using Biacore 8K instrument (GE Healthcare). Anti-Fab antibody was immobilized on a CMS chip using standard amine coupling chemistry. CD33 FABs were captured on the anti-Fab chip at a density of ˜100 RU. Solutions containing different concentrations of soluble monomeric CD33 or its domains were injected over the captured FABs and control surfaces at 30 μl/min at 37° C. Surfaces were regenerated between cycles by quick injection of 10 mM glycine, pH 1.8. To obtain kinetic rate constants double-referenced data were fit to a 1:1 interaction model using Biacore 8K Evaluation software (GE Healthcare). The equilibrium binding constant KD was determined by the ratio of binding rate constants kd/kₐ.
The binding interface between the Fab fragment of each CD33 antibody to CD33 was mapped.

[2] = target: T2, V domain of human CD33 (human, UniProt P20138 18-139, limits assumed); assay: SPR, Fab captured, 37C
T2 construct: recombinant, fully glycosylated V domain; also called Human CD33 V domain
Experimental: as §1
(§2) The ability of anti-CD33 antibodies to recognize glycosylated CD33 was assayed. […] De-glycosylation status was confirmed by a shift on SDS-PAGE and MS.

[3] = target: T3, deglycosylated V domain of human CD33 (human, UniProt P20138 18-139, limits assumed, N-glycans removed by PNGase); assay: SPR, Fab captured, 37C
T3 construct: V domain deglycosylated by PNGase before testing; also called deglycosylated V CD33
Experimental: as §1, §2

[4] = target: T4, cyno CD33 extracellular domain (Cynomolgus/Rhesus (cyno)); assay: SPR, Fab captured, 37C;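 note: surface plasmon resonance with Fabs captured on anti-Fab surface, soluble monomeric CD33 as analyte at several concentrations, double-referenced 1:1 model fit, KD as koff/kon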
T4 construct: soluble monomeric ECD; also called cyno CD33 ECD

[5] = target: T2, V domain of human CD33; assay: SPR, Fab captured, 37C; remark: listed apart in the source
Experimental: as §1

[6] = target: T5, human CD33 extracellular domain (human, UniProt P20138 18-259); assay: BLI Octet, IgG loaded;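 note: IgGs captured on AHC biosensors, exposed to 100 nM antigen for 3 min association then 3 min dissociation in buffer, kinetics fitted with a 1:1 binding model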
T5 construct: soluble monomeric ECD; also called human CD33 ECD; hCD33
Experimental: Briefly, ForteBio affinity measurements were performed by loading IgGs on-line onto AHC sensors. Sensors were equilibrated off-line in assay buffer for 30 min and then monitored on-line for 60 seconds for baseline establishment. Sensors with loaded IgGs were exposed to 100 nM antigen for 3 minutes, and afterwards were transferred to assay buffer for 3 min for off-rate measurement. All kinetics were analyzed using the 1:1 binding model.

[7] = target: T5, human CD33 extracellular domain; assay: SPR, Fab captured, 37C
[8] = target: T5, human CD33 extracellular domain; assay: SPR, Fab captured, 37C; remark: listed apart in the source
[9] = target: T5, human CD33 extracellular domain; assay: SPR, Fab captured, 37C; remark: listed apart in the source
Experimental: as §1

binding result [1]: no binding
Kd [7]: 780 pM
koff [7]: 0.00124 s⁻¹
kon [7]: 1.6e+06 M⁻¹ s⁻¹
Kd [2]: 330 pM
koff [2]: 0.00143 s⁻¹
kon [2]: 4.52e+06 M⁻¹ s⁻¹
Kd [3]: 280 pM
koff [3]: 0.00136 s⁻¹
kon [3]: 4.85e+06 M⁻¹ s⁻¹
Kd [4]: 1810 pM
koff [4]: 0.00472 s⁻¹
kon [4]: 2.62e+06 M⁻¹ s⁻¹
Kd [8]: 780 pM
koff [8]: 0.00124 s⁻¹
kon [8]: 1.6e+06 M⁻¹ s⁻¹
Kd [5]: 330 pM
koff [5]: 0.00143 s⁻¹
kon [5]: 4.52e+06 M⁻¹ s⁻¹
Kd [9]: 780 pM
koff [9]: 0.00124 s⁻¹
kon [9]: 1.6e+06 M⁻¹ s⁻¹
B4: ADI-11776 Fab (Fab, V domains shown)
VH: EVQLLESGGGLVQPGGSLRLSCAASGFTFSKYTMSWVRQAPGKGLEWVSAIVGSGESTYFADSVKGRFTISRDNSKNTLYLQMNSLRAEDTAVYYCAREGGPYYDSSGYFVYYGMDVWGQGTTVTVSS
VL: DIQMTQSPSTLSASVGDRVTITCRASQSISSWLAWYQQKPGKAPKLLIYKASSLESGVPSRFSGSGSGTEFTLTISSLQPDDFATYYCQQYDDLPTFGGGTKVEIK
notes: Fab fragment; also called Ab3; H76

binding result [1]: no binding
Kd [3]: 156000 pM
koff [3]: 0.203 s⁻¹
kon [3]: 1.3e+06 M⁻¹ s⁻¹
binding result [4]: no binding (tested: 100 nM)
B6: ADI-10165 Fab (Fab, V domains shown)
VH: EVQLVESGGGLVQPGGSLRLSCAASGFTFSSYWMSWVRQAPGKGLEWVANIKQDGSEKYYVDSVKGRFTISRDNAKNSLYLQMNSLRAEDTAVYYCARDVGPGIAYQGHFDYWGQGTLVTVSS
VL: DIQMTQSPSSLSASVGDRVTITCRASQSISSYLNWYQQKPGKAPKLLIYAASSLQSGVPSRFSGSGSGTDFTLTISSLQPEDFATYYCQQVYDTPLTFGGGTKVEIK
notes: Fab fragment; also called Ab19

binding result [4]: no binding (tested: 100 nM)
Kd [8]: 16700 pM
koff [8]: 0.0122 s⁻¹
kon [8]: 735000 M⁻¹ s⁻¹
B8: Fab fragment from Lintuzumab (Fab, V domains shown)
VH: QVQLVQSGAEVKKPGSSVKVSCKASGYTFTDYNMHWVRQAPGQGLEWIGYIYPYNGGTGYNQKFKSKATITADESTNTAYMELSSLRSEDTAVYYCARGRPAMDYWGQGTLVTVSS
VL: DIQMTQSPSSLSASVGDRVTITCRASESVDNYGISFMNWFQQKPGKAPKLLIYAASNQGSGVPSRFSGSGSGTDFTLTISSLQPDDFATYYCQQSKEVPWTFGQGTKVEIK
notes: Fab fragment

binding result [1]: no binding
Kd [7]: 1.2 pM
koff [7]: 1.23e-06 s⁻¹
kon [7]: 1.02e+06 M⁻¹ s⁻¹
Kd [2]: 300 pM
koff [2]: 0.000769 s⁻¹
kon [2]: 2.6e+06 M⁻¹ s⁻¹
Kd [3]: 210 pM
koff [3]: 0.000711 s⁻¹
kon [3]: 3.4e+06 M⁻¹ s⁻¹
Kd [4]: 118 pM
koff [4]: 0.000126 s⁻¹
kon [4]: 1.06e+06 M⁻¹ s⁻¹
Kd [8]: 1.2 pM
koff [8]: 1.23e-06 s⁻¹
kon [8]: 1.02e+06 M⁻¹ s⁻¹
Kd [5]: 300 pM
koff [5]: 0.000769 s⁻¹
kon [5]: 2.6e+06 M⁻¹ s⁻¹
Kd [9]: 1.2 pM
koff [9]: 1.23e-06 s⁻¹
kon [9]: 1.02e+06 M⁻¹ s⁻¹
B13: ADI-11809 Fab (Fab, V domains shown)
VH: EVQLVESGGGLVQPGGSLRLSCAASGFTFPSYWMSWVRQAPGKGLEWVATIKRDGSEKGYVDSVKGRFTISRDNAKNSLYLQMNSLRAEDTAVYYCARPLNAGELDVWGQGTMVTVSS
VL: DIQMTQSPSTLSASVGDRVTITCRASQSISSWLAWYQQKPGKAPKLLIYEASSLESGVPSRFSGSGSGTEFTLTISSLQPDDFATYYCQQSQSYPPITFGGGTKVEIK
notes: Fab fragment; also called Ab6

Continued, binder first:

B1: ADI-10158 Fab (Fab, V domains shown)
VH: QVQLQQWGAGLLKPSETLSLTCAVYGGSFSGYYWSWIRQPPGKGLEWIGEIDHSGSTNYNPSLKSRVTISVDTSKNQFSLKLSSVTAADTAVYYCARQGIHGLRYFDLWGRGTLVTVSS
VL: EIVMTQSPATLSLSPGERATLSCRASQSVSSYLAWYQQKPGQAPRLLIYDASNRATGIPARFSGSGSGTDFTLTISSLEPEDFAVYYCQQDHNFPYTFGGGTKVEIK
notes: Fab fragment; also called Ab14
binding result [1]: no binding
Kd [2]: 127000 pM
koff [2]: 0.133 s⁻¹
kon [2]: 1.04e+06 M⁻¹ s⁻¹
Kd [3]: 88100 pM
koff [3]: 0.231 s⁻¹
kon [3]: 2.63e+06 M⁻¹ s⁻¹
binding result [4]: no binding (tested: 100 nM)
Kd [5]: 127000 pM
koff [5]: 0.133 s⁻¹
kon [5]: 1.04e+06 M⁻¹ s⁻¹

B2: ADI-10168 Fab (Fab, V domains shown)
VH: QVQLVQSGAEVKKPGSSVKVSCKASGGTFSSYAISWVRQAPGQGLEWMGSIIPIFGTANYAQKFQGRVTITADESTSTAYMELSSLRSEDTAVYYCAREVGYGWYTKIAFDIWGQGTMVTVSS
VL: EIVLTQSPATLSLSPGERATLSCRASQSVSSYLAWYQQKPGQAPRLLIYDASKRATGIPARFSGSGSGTDFTLTISSLEPEDFAVYYCQQSSNHPSTFGGGTKVEIK
notes: Fab fragment; also called Ab21
binding result [1]: no binding
binding result [3]: no binding
binding result [4]: no binding (tested: 100 nM)
binding result [5]: no binding

B3: ADI-11839 IgG (antibody, V domains shown)
VH: QVQLVQSGAEVKKPGASVKVSCKASGYTFSNYYMHWVRQAPGQGLEWMGWINPFSGGTRYAQKFQGRVTMTRDTSTSTVYMELSSLRSEDTAVYYCARDVGSSAYYYMDVWGKGTTVTVSS
VL: DIQMTQSPSSVSASVGDRVTITCEASKGISSWLAWYQQKPGKAPKLLIYAASDLQSGVPSRFSGSGSGTDFTLTISSLQPEDFATYYCQQAFLFPPTFGGGTKVEIK
notes: IgG; also called Ab28
Kd [6]: 2450 pM
koff [6]: 0.00172 s⁻¹
kon [6]: 704000 M⁻¹ s⁻¹

B5: ADI-11819 IgG (antibody, V domains shown)
VH: EVQLVESGGGLVKPGGSLRLSCAASGFTFSSYAMSWVRQAPGKGLEWVSSISSSSEGIYYADSVKGRFTISRDNAKNSLYLQMNSLRAEDTAVYYCAREGGPYYDSSGYFVYYGMDVWGQGTTVTVSS
VL: DIQMTQSPSTLSASVGDRVTITCRASNSISSWLAWYQQKPGKAPKLLIYEASSTKSGVPSRFSGSGSGTEFTLTISSLQPDDFATYYCQQYDDLPTFGGGTKVEIK
notes: IgG; also called Ab8
Kd [6]: 243 pM
koff [6]: 0.0002 s⁻¹
kon [6]: 824000 M⁻¹ s⁻¹

B7: ADI-10157 IgG (antibody, V domains shown)
VH: QVQLQESGPGLVKPSETLSLTCTVSGGSISSYYWSWIRQPPGKGLEWIGSIYYSGSTNYNPSLKSRVTISVDTSKNQFSLKLSSVTAADTAVYYCARVGGVYSTIETYGMDVWGQGTTVTVSS
VL: EIVMTQSPATLSVSPGERATLSCRASQSVSSNLAWYQQKPGQAPRLLIYGASTRATGIPARFSGSGSGTEFTLTISSLQSEDFAVYYCQQYTVYPPTFGGGTKVEIK
notes: IgG; also called Ab13
Kd [6]: 4200 pM
koff [6]: 0.000336 s⁻¹
kon [6]: 79900 M⁻¹ s⁻¹

B9: Lintuzumab (antibody, V domains shown)
VH: QVQLVQSGAEVKKPGSSVKVSCKASGYTFTDYNMHWVRQAPGQGLEWIGYIYPYNGGTGYNQKFKSKATITADESTNTAYMELSSLRSEDTAVYYCARGRPAMDYWGQGTLVTVSS
VL: DIQMTQSPSSLSASVGDRVTITCRASESVDNYGISFMNWFQQKPGKAPKLLIYAASNQGSGVPSRFSGSGSGTDFTLTISSLQPDDFATYYCQQSKEVPWTFGQGTKVEIK
notes: IgG; also called lintuzumab IgG
Kd [6]: 2210 pM
koff [6]: 0.000952 s⁻¹
kon [6]: 431000 M⁻¹ s⁻¹

B10: ADI-11807 Fab (Fab, V domains shown)
VH: EVQLVESGGGLVQPGGSLRLSCAASGFTFGSYWMSWVRQAPGKGLEWVATIKQDGSEKSYVDSVKGRFTISRDNAKNSLYLQMNSLRAEDTAVYYCARPLNAGELDVWGQGTMVTVSS
VL: DIQMTQSPSTLSASVGDRVTITCRASQSISSWLAWYQQKPGKAPKLLIYEASSLESGVPSRFSGSGSGTEFTLTISSLQPDDFATYYCQQSQSYPPITFGGGTKVEIK
notes: Fab fragment; also called Ab5; I07
binding result [1]: no binding
Kd [7]: 290 pM
koff [7]: 0.000332 s⁻¹
kon [7]: 1.14e+06 M⁻¹ s⁻¹
Kd [2]: 280 pM
koff [2]: 0.000847 s⁻¹
kon [2]: 3.07e+06 M⁻¹ s⁻¹
Kd [3]: 190 pM
koff [3]: 0.000745 s⁻¹
kon [3]: 3.9e+06 M⁻¹ s⁻¹
Kd [4]: 150 pM
koff [4]: 0.000151 s⁻¹
kon [4]: 998000 M⁻¹ s⁻¹
Kd [8]: 290 pM
koff [8]: 0.000332 s⁻¹
kon [8]: 1.14e+06 M⁻¹ s⁻¹
Kd [5]: 280 pM
koff [5]: 0.000847 s⁻¹
kon [5]: 3.07e+06 M⁻¹ s⁻¹
Kd [9]: 290 pM
koff [9]: 0.000332 s⁻¹
kon [9]: 1.14e+06 M⁻¹ s⁻¹

B11: ADI-11807 IgG (antibody, V domains shown)
VH: EVQLVESGGGLVQPGGSLRLSCAASGFTFGSYWMSWVRQAPGKGLEWVATIKQDGSEKSYVDSVKGRFTISRDNAKNSLYLQMNSLRAEDTAVYYCARPLNAGELDVWGQGTMVTVSS
VL: DIQMTQSPSTLSASVGDRVTITCRASQSISSWLAWYQQKPGKAPKLLIYEASSLESGVPSRFSGSGSGTEFTLTISSLQPDDFATYYCQQSQSYPPITFGGGTKVEIK
notes: IgG; also called Ab5; I07
Kd [6]: 307 pM
koff [6]: 0.0002 s⁻¹
kon [6]: 651000 M⁻¹ s⁻¹

B12: ADI-11809 IgG (antibody, V domains shown)
VH: EVQLVESGGGLVQPGGSLRLSCAASGFTFPSYWMSWVRQAPGKGLEWVATIKRDGSEKGYVDSVKGRFTISRDNAKNSLYLQMNSLRAEDTAVYYCARPLNAGELDVWGQGTMVTVSS
VL: DIQMTQSPSTLSASVGDRVTITCRASQSISSWLAWYQQKPGKAPKLLIYEASSLESGVPSRFSGSGSGTEFTLTISSLQPDDFATYYCQQSQSYPPITFGGGTKVEIK
notes: IgG; also called Ab6
Kd [6]: 313 pM
koff [6]: 0.0002 s⁻¹
kon [6]: 638000 M⁻¹ s⁻¹

B14: ADI-11835 IgG (antibody, V domains shown)
VH: QLQLQESGPGLVKPSETLSLTCTVSGGSISSTDYYWGWIRQPPGKGLEWIGSIGYSGTYYNPSLKSRVTISVDTSKNQFSLKLSSVTAADTAVYYCARETAHDVHGMDVWGQGTTVTVSS
VL: EIVLTQSPATLSLSPGERATLSCRASHSVYSYLAWYQQKPGQAPRLLIYDASNRATGIPARFSGSGSGTDFTLTISSLEPEDFAVYYCQQYDNLPTFGGGTKVEIK
notes: IgG; also called Ab10; I35
Kd [6]: 281 pM
koff [6]: 0.000237 s⁻¹
kon [6]: 844000 M⁻¹ s⁻¹
